Experimental data published in US20250296971A1, “GASTRIC INHIBITORY PEPTIDE RECEPTOR LIGANDS” (priority 2021, published 2025).
*1 amine or outer side, *2 acyl side, *3 side chain or, on linkers, in order; H or OH if unused. Bridges are numbered along the chain shown (N, C = ends). Primed or numbered codes have the meaning given here. Where no end group is shown, it is not given here. Side-chain parts run from the residue outwards. [ ]: non-standard residue; d: D form. The star is where a group is joined. EuDOTA = DOTA europium complex, O=C([O-])CN1CCN(CC(=O)[O-])CCN(CC(=O)*)CCN(CC(=O)[O-])CC1.[Eu+3]; Ttds = 1,13-diamino-4,7,10-trioxatridecan-succinamic acid, NCCCOCCOCCOCCCNC(=O)CCC(=O)*; DOTA(In) = O=C1CN2CCN3CCN(CC(=O)*)CCN(CC2)CC(=O)[O][In]([O]1)[O]C(=O)C3; NH(1-deoxy-D-glucityl) = OC[C@@H](O)[C@@H](O)[C@H](O)[C@@H](O)CN*; (dE)(AGLU) = D-glutamic acid bearing 1-amino-1-deoxy-D-glucitol; APAc″ = 4-amino-1-carboxymethylpiperidine, NC1CCN(CC(=O)*)CC1; dE(AGLU) = D-glutamic acid bearing 1-amino-1-deoxy-D-glucitol; Ttds(4) = 1,13-diamino-4,7,10-trioxatridecan-succinamic acid; Pro(trans-4-NH2) = O=C([C@@H]1C[C@@H](N[*:3])CN1[*:1])[*:2]; DOTA = O=C(O)CN1CCN(CC(=O)O)CCN(CC(=O)*)CCN(CC(=O)O)CC1; 2Lut = 2,6-lutidylidene bridge between two thiols; Trp(5-Cl) = N[C@@H](Cc1c[nH]c2ccc(Cl)cc12)C(=O)O; Pyridine(2,6-diCH2) = c1cc(C[*:1])nc(C[*:2])c1; Trp(5-F) = N[C@@H](Cc1c[nH]c2ccc(F)cc12)C(=O)O; Trp(6-F) = N[C@@H](Cc1c[nH]c2cc(F)ccc12)C(=O)O; APAc = 4-amino-1-carboxymethylpiperidine; 1Nal = N[C@@H](Cc1cccc2ccccc12)C(=O)O; mXylylene = c1cc(C[*:1])cc(C[*:2])c1; LuDOTA = DOTA Lutetium(III) complex; Glutaryl = O=C(CCCC(=O)[*:2])[*:1]; AGLU = 1-amino-1-deoxy-D-glucitol; Hyp = O=C(O)[C@@H]1C[C@@H](O)CN1; Cysteamide = C(CS[*:3])N[*:1]; dGlu(AGLU) = not defined here; Suc = O=C(CCC(=O)[*:2])[*:1]; 2Lut(3) = 2,6-lutidylidene; Ac6c = NC1(C(=O)O)CCCCC1; 3Lut = 3,5-lutidylidene; Api = NC1(C(=O)O)CCNCC1; Thp = NC1(C(=O)O)CCOCC1; Dap = NC[C@H](N)C(=O)O; Aib = CC(C)(N)C(=O)O

Biological target: human Gastric Inhibitory Peptide Receptor (human) (UniProt P48546)
Test: FACS competition with GIP-057 on CHO-K1-hGIPR cells; pIC50 category A: >8.0

Sequence of human Gastric Inhibitory Peptide Receptor (human) (P48546 22-466 limits assumed): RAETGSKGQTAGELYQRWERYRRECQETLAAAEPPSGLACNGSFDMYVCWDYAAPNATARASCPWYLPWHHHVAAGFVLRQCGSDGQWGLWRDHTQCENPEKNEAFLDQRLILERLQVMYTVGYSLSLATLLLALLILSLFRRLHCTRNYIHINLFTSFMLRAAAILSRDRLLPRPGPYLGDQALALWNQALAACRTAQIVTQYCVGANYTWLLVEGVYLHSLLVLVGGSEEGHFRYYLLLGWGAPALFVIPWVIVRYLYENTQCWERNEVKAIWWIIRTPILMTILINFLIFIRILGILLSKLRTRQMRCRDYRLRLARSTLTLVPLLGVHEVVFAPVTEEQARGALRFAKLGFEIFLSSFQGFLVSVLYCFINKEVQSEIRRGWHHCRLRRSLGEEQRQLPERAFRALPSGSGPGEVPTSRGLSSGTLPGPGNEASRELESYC

B1: DOTA-Ttds-Asp-Trp-5Clw-Pro-Glu-leu-[Cys(3MeBn)-Apc(DOTA)-Leu-Ile-AET] (peptide)
peptide: {DOTA-Ttds}-DW[Trp(5-Cl)]PE[dL]C[Api](DOTA)LI[Cysteamide]
modifications: linker (positions not given here) via mXylylene; not fully specified (bridges); printed as DOTA-Ttds-Asp-Trp-5Clw-Pro-Glu-leu-[Cys(3MeBn)-Apc(DOTA)-Leu-Ile-AET]
pIC50: > 8 pic50

Ac-D[Trp(6-F)][1Nal]PE[dL]C[Aib]LIC-{Ttds(4)-K(DOTA)-NH2} (linker 7-11 via mXylylene) [Ac-Asp-6Fw-1Ni-Pro-Glu-leu-[Cys(3MeBn)-Aib-Leu-Ile-Cys]-Ttds-Lys(DOTA)-NH2]
pIC50: > 8 pic50

B2: DOTA-Ttds-Asp-Trp-5Clw-Pro-Glu-leu-[Cys(3Lut)-Aib-Leu-Ile-AET] (peptide)
peptide: {DOTA-Ttds}-DW[Trp(5-Cl)]PE[dL]C[Aib]LI[Cysteamide]
modifications: linker (positions not given here) via 3Lut; not fully specified (bridges); printed as DOTA-Ttds-Asp-Trp-5Clw-Pro-Glu-leu-[Cys(3Lut)-Aib-Leu-Ile-AET]
pIC50: > 8 pic50

{AGLU-Glutaryl-APAc}-DW[Trp(5-Cl)][Hyp]E[dL]C[Api]LIC-{APAc-dE(AGLU)-NH2} (linker 7-11 via Pyridine(2,6-diCH2); not fully specified (residue 8))
pIC50: > 8 pic50

B3: DOTA-O2Oc-glu(AGLU)-Asp-Trp-5Clw-Tap-Glu-leu-[Cys(2Lut)-Apc(AGLU-Glutar)-Leu-Ile-Cys]-APAc-glu(AGLU)-NH2 (peptide)
peptide: DW[Trp(5-Cl)][Pro(trans-4-NH2)]E[dL]C[Api]([Glutaryl-NH(1-deoxy-D-glucityl)])LIC-{APAc-(dE)(AGLU)-NH2}
modifications: linker 7-11 via Pyridine(2,6-diCH2); not fully specified (N-terminus); printed as DOTA-O2Oc-glu(AGLU)-Asp-Trp-5Clw-Tap-Glu-leu-[Cys(2Lut)-Apc(AGLU-Glutar)-Leu-Ile-Cys]-APAc-glu(AGLU)-NH2
pIC50: > 8 pic50

B4: AGLU-Glutar-APAc-Asp-Trp-5Clw-Tap-Glu-leu-[Cys(2Lut)-Apc(LuDOTA-glu(AGLU))-Leu-Ile-Cys]-APAc-glu(AGLU)-NH2 (peptide)
peptide: {AGLU-Glutaryl-APAc}-DW[Trp(5-Cl)][Pro(trans-4-NH2)]E[dL]C[Api]LIC-{APAc-dE(AGLU)-NH2}
modifications: linker 7-11 via Pyridine(2,6-diCH2); not fully specified (residue 8); also: DOTA complexed with Lu (LuDOTA)
pIC50: > 8 pic50

B5: DOTA-Ttds-Asp-Trp-5Clw-Pro-Glu-leu-[Cys(3MeBn)-Egz-Leu-Ile-AET] (peptide)
peptide: {DOTA-Ttds}-DW[Trp(5-Cl)]PE[dL]C[Ac6c]LI[Cysteamide]
modifications: linker (positions not given here) via mXylylene; not fully specified (bridges); printed as DOTA-Ttds-Asp-Trp-5Clw-Pro-Glu-leu-[Cys(3MeBn)-Egz-Leu-Ile-AET]
pIC50: > 8 pic50

DWXPEXCXLI (N-term DOTA-Ttds; 5Clw; leu (D-Leu); cycle [Cys(3MeBn)..en]; Aib) [DOTA-Ttds-Asp-Trp-5Clw-Pro-Glu-leu-[Cys(3MeBn)-Aib-Leu-Ile-en]]
pIC50: > 8 pic50

B6: DOTA-Ttds-Asp-Trp-5Clw-Pro-Glu-leu-[Cys(3MeBn)-Apc-Leu-Ile-AET] (peptide)
peptide: {DOTA-Ttds}-DW[Trp(5-Cl)]PE[dL]C[Api]LI[Cysteamide]
modifications: linker (positions not given here) via mXylylene; not fully specified (bridges); printed as DOTA-Ttds-Asp-Trp-5Clw-Pro-Glu-leu-[Cys(3MeBn)-Apc-Leu-Ile-AET]
pIC50: > 8 pic50

B7: DOTA-Ttds-Asp-Trp-5Clw-Pro-Glu-leu-[Dap(3MeBn)-Aib-Leu-Ile-AET] (peptide)
peptide: {DOTA-Ttds}-DW[Trp(5-Cl)]PE[dL][Dap][Aib]LI[Cysteamide]
modifications: linker (positions not given here) via mXylylene; not fully specified (bridges); printed as DOTA-Ttds-Asp-Trp-5Clw-Pro-Glu-leu-[Dap(3MeBn)-Aib-Leu-Ile-AET]
pIC50: > 8 pic50

{DOTA-Ttds}-DW[Trp(5-Cl)][Hyp]E[dL]C[Thp]LICK(DOTA)-NH2 (linker 7-11 via 2Lut(3)) [DOTA-Ttds-Asp-Trp-5Clw-Hyp-Glu-leu-[Cys(2Lut)-Thp-Leu-Ile-Cys]-Lys(DOTA)-NH2]
pIC50: > 8 pic50

B8: AGLU-Glutar-APAc-Asp-Trp-5Clw-Tap-Glu-leu-[Cys(2Lut)-Apc(InDOTA-glu(AGLU))-Leu-Ile-Cys]-APAc-glu(AGLU)-NH2 (peptide)
peptide: {AGLU-Glutaryl-APAc}-DW[Trp(5-Cl)][Pro(trans-4-NH2)]E[dL]C[Api]LIC-{APAc-dE(AGLU)-NH2}
modifications: linker 7-11 via Pyridine(2,6-diCH2); not fully specified (residue 8); also: DOTA complexed with In (InDOTA)
pIC50: > 8 pic50

B9: DOTA-Ttds-Asp-Trp-5Clw-Hyp-Glu-leu-[Cys(3MeBn)-Aib-Leu-Ile-AET] (peptide)
peptide: {DOTA-Ttds}-DW[Trp(5-Cl)][Hyp]E[dL]C[Aib]LI[Cysteamide]
modifications: linker (positions not given here) via mXylylene; not fully specified (bridges); printed as DOTA-Ttds-Asp-Trp-5Clw-Hyp-Glu-leu-[Cys(3MeBn)-Aib-Leu-Ile-AET]
pIC50: > 8 pic50

B10: AGLU-Glutar-Asp-Trp-5Clw-Hyp-Glu-leu-[Cys(2Lut)-Apc(GaDOTA)-Leu-Ile-Cys]-APAc-glu(AGLU)-NH2 (peptide)
peptide: DWXXEXCXLIC
modifications: N-term AGLU-Glutar; 5Clw; Hyp; leu (D-Leu); thioether cycle [Cys(2Lut)..Cys]; Apc(GaDOTA); C-term APAc-glu(AGLU)-NH2
pIC50: > 8 pic50

{DOTA(In)-dE(AGLU)-APAc}-DW[Trp(5-Cl)][Hyp]E[dL]C[Thp]LIC-{APAc-dE(AGLU)-NH2} (linker 7-11 via Pyridine(2,6-diCH2)) [InDOTA-glu(AGLU)-APAc-Asp-Trp-5Clw-Hyp-Glu-leu-[Cys(2Lut)-Thp-Leu-Ile-Cys]-APAc-glu(AGLU)-NH2]
pIC50: > 8 pic50

{AGLU-Glutaryl}-DW[Trp(5-Cl)][Pro(trans-4-NH2)]E[dL]C[Api](GaNODAGA)LIC-{APAc-dE(AGLU)-NH2} (linker 7-11 via Pyridine(2,6-diCH2)) [AGLU-Glutar-Asp-Trp-5Clw-Tap-Glu-leu-[Cys(2Lut)-Apc(GaNODAGA)-Leu-Ile-Cys]-APAc-glu(AGLU)-NH2]
pIC50: > 8 pic50

{EuDOTA-dGlu(AGLU)-APAc}-DW[Trp(5-Cl)][Hyp]E[dL]C[Thp]LIC-{APAc-dGlu(AGLU)-NH2} (linker 7-11 via 2Lut; reading uncertain; also: Eu complex of DOTA) [EuDOTA-glu(AGLU)-APAc-Asp-Trp-5Clw-Hyp-Glu-leu-[Cys(2Lut)-Thp-Leu-Ile-Cys]-APAc-glu(AGLU)-NH2]
pIC50: > 8 pic50

{DOTA-Ttds}-DW[Trp(5-Cl)][Pro(trans-4-NH2)](DOTA)E[dL]C[Api](DOTA)LICK(DOTA)-NH2 (linker 7-11 via Pyridine(2,6-diCH2)) [DOTA-Ttds-Asp-Trp-5Clw-Tap(DOTA)-Glu-leu-[Cys(2Lut)-Apc(DOTA)-Leu-Ile-Cys]-Lys(DOTA)-NH2]
pIC50: > 8 pic50

{DOTA-dE(AGLU)-APAc}-DW[Trp(5-Cl)][Hyp]E[dL]C[Api]([Glutaryl-NH(1-deoxy-D-glucityl)])LIC-{APAc-dE(AGLU)-NH2} (linker 7-11 via Pyridine(2,6-diCH2))
pIC50: > 8 pic50

{AGLU-Glutaryl}-DW[Trp(5-Cl)][Pro(trans-4-NH2)]E[dL]C[Api](DOTA)LI[dC]-{APAc-dE(AGLU)-NH2} (linker 7-11 via Pyridine(2,6-diCH2)) [AGLU-Glutar-Asp-Trp-5Clw-Tap-Glu-leu-[Cys(2Lut)-Apc(DOTA)-Leu-Ile-cys]-APAc-glu(AGLU)-NH2]
pIC50: > 8 pic50

Suc-W[Trp(5-Cl)][Hyp]E[dL]C[Api]([Glutaryl-NH(1-deoxy-D-glucityl)])LIC-{APAc-Lys(DOTA)-NH2} (linker 6-10 via Pyridine(2,6-diCH2)) [HO-Succinyl-Trp-5Clw-Hyp-Glu-leu-[Cys(2Lut)-Apc(AGLU-Glutar)-Leu-Ile-Cys]-APAc-Lys(DOTA)-NH2]
pIC50: > 8 pic50

{LuDOTA-dE(AGLU)-APAc}-DW[Trp(5-Cl)][Hyp]E[dL]C[Thp]LIC-{APAc-dE(AGLU)-NH2} (linker 7-11 via Pyridine(2,6-diCH2)) [LuDOTA-glu(AGLU)-APAc-Asp-Trp-5Clw-Hyp-Glu-leu-[Cys(2Lut)-Thp-Leu-Ile-Cys]-APAc-glu(AGLU)-NH2]
pIC50: > 8 pic50

B11: DOTA-Ttds-Asp-Trp-5Clw-Pro-Glu-leu-[Cys(3MeBn)-Thp-Leu-Ile-AET] (peptide)
peptide: {DOTA-Ttds}-DW[Trp(5-Cl)]PE[dL]C[Thp]LI[Cysteamide]
modifications: linker (positions not given here) via mXylylene; not fully specified (bridges); printed as DOTA-Ttds-Asp-Trp-5Clw-Pro-Glu-leu-[Cys(3MeBn)-Thp-Leu-Ile-AET]
pIC50: > 8 pic50

Ac-D[Trp(5-F)][1Nal]PE[dL]C[Aib]LIC-{Ttds(4)-K(DOTA)-NH2} (linker 7-11 via mXylylene) [Ac-Asp-5Fw-1Ni-Pro-Glu-leu-[Cys(3MeBn)-Aib-Leu-Ile-Cys]-Ttds-Lys(DOTA)-NH2]
pIC50: > 8 pic50

{DOTA-APAc″}-DW[Trp(5-Cl)]PE[dL]C[Aib]LI[Cysteamide] (linker 7-11 via mXylylene) [DOTA-APAc-Asp-Trp-5Clw-Pro-Glu-leu-[Cys(3MeBn)-Aib-Leu-Ile-AET]]
pIC50: > 8 pic50

B12: AGLU-Glutar-APAc-Asp-Trp-5Clw-Tap-Glu-leu-[Cys(2Lut)-Apc(GaDOTA-glu(AGLU))-Leu-Ile-Cys]-APAc-glu(AGLU)-NH2 (peptide)
peptide: {AGLU-Glutaryl-APAc}-DW[Trp(5-Cl)][Pro(trans-4-NH2)]E[dL]C[Api]LIC-{APAc-dE(AGLU)-NH2}
modifications: linker 7-11 via Pyridine(2,6-diCH2); not fully specified (residue 8); also: DOTA complexed with Ga (GaDOTA)
pIC50: > 8 pic50

{DOTA-dE(AGLU)}-DW[Trp(5-Cl)][Pro(trans-4-NH2)]E[dL]C[Api]([Glutaryl-NH(1-deoxy-D-glucityl)])LIC-{APAc-dE(AGLU)-NH2} (linker 7-11 via Pyridine(2,6-diCH2)) [DOTA-glu(AGLU)-Asp-Trp-5Clw-Tap-Glu-leu-[Cys(2Lut)-Apc(AGLU-Glutar)-Leu-Ile-Cys]-APAc-glu(AGLU)-NH2]
pIC50: > 8 pic50

B13: DOTA-Ttds-Asp-Trp-5Clw-Pro-Glu-leu-[Cys(2Lut)-Aib-Leu-Ile-AET] (peptide)
peptide: {DOTA-Ttds}-DW[Trp(5-Cl)]PE[dL]C[Aib]LI[Cysteamide]
modifications: linker (positions not given here) via 2Lut(3); not fully specified (bridges); printed as DOTA-Ttds-Asp-Trp-5Clw-Pro-Glu-leu-[Cys(2Lut)-Aib-Leu-Ile-AET]
pIC50: > 8 pic50

{DOTA-Ttds}-DW[Trp(5-Cl)][Hyp]E[dL]C[Api](DOTA)LICK(DOTA)-NH2 (linker 7-11 via 2Lut(3)) [DOTA-Ttds-Asp-Trp-5Clw-Hyp-Glu-leu-[Cys(2Lut)-Apc(DOTA)-Leu-Ile-Cys]-Lys(DOTA)-NH2]
pIC50: > 8 pic50
